Measurements reported in IntAct's records for PubMed 31025394.

B1: Myosin-binding protein C, slow-type (Homo sapiens), Q00872-4 (parent)
chain: MPEPTKKEENEVPAPAPPPEEPSKEKEAGTTPAKDEEEVSPPSALPPGLGSRALERKDSDWTLVETPPGEEQAKQNANSQLSILFIEKPQGGTVKVGEDITFIAKVKAEDLLRKPTIKWFKGKWMDLASKAGKHLQLKETFERHSRVYTFEMQIIKAKDNFAGNYRCEVTYKDKFDSCSFDLEVHESTGTTPNIDIRSAFKRSGEGQEDAGELDFSGLLKRREVKQQEEEPQVDVWELLKNAKPSEYEKIAFQYGITDLRGMLKRLKRMRREEKKSAAFAKILDPAYQVDKGGRVRFVVELADPKLEVKWYKNGQEIRPSTKYIFEHKGCQRILFINNCQMTDDSEYYVTAGDEKCSTELFVREPPIMVTKQLEDTTAYCGERVELECEVSEDDANVKWFKNGEEIIPGPKSRYRIRVEGKKHILIIEGATKADAAEYSVMTTGGQSSAKLSVDLKPLKILTPLTDQTVNLGKEICLKCEISENIPGKWTKNGLPVQESDRLKVVHKGRIHKLVIANALTEDEGDYVFAPDAYNVTLPAKVHVIDPPKIILDGLDADNTVTVIAGNKLRLEIPISGEPPPKAMWSRGDKAIMEGSGRIRTESYPDSSTLVIDIAERDDSGVYHINLKNEAGEAHASIKVKVVDFPDPPVAPTVTEVGDDWCIMNWEPPAYDGGSPILGYFIERKKKQSSRWMRLNFDLCKETTFEPKKMIEGVAYEVRIFAVNAIGISKPSMPSRPFVPLAVTSPPTLLTVDSVTDTTVTMRWRPPDHIGAAGLDGYVLEYCFEGTEDWIVANKDLIDKTKFTITGLPTDAKIFVRVKAVNAAGASEPKYYSQPILVKEIIEPPKIRIPRHLKQTYIRRVGEAVNLVIPFQGKPRPELTWKKDGAEIDKNQINIRNSETDTIIFIRKAERSHSGKYDLQVKVDKFVETASIDIQIIDRPGPPQIVKIEDVWGENVALTWTPPKDDGNAAITGYTIQKADKKSMEWFTVIEHYHRTSATITELVIGNEYYFRVFSENMCGLSEDATMTKESAVIARDGKIYKNPVYEDFDFSEAPMFTQPLVNTYAIAGYNATLNCSVRGNPKPKITWMKNKVAIVDDPRYRMFSNQGVCTLEIRKPSPYDGGTYCCKAVNDLGTVEIECKLEVKVIYQGVNTPGQPVFLEGQQQSLHNKDF

Legend:
acts_rabit ACTA1, P68135 = variants of: B1; conditions: with acts_rabit ACTA1, P68135
[1] = variants of: B1; conditions: with myh11_rabit MYH11, P35748
Chain of myh11_rabit MYH11, P35748 (P35748 whole entry): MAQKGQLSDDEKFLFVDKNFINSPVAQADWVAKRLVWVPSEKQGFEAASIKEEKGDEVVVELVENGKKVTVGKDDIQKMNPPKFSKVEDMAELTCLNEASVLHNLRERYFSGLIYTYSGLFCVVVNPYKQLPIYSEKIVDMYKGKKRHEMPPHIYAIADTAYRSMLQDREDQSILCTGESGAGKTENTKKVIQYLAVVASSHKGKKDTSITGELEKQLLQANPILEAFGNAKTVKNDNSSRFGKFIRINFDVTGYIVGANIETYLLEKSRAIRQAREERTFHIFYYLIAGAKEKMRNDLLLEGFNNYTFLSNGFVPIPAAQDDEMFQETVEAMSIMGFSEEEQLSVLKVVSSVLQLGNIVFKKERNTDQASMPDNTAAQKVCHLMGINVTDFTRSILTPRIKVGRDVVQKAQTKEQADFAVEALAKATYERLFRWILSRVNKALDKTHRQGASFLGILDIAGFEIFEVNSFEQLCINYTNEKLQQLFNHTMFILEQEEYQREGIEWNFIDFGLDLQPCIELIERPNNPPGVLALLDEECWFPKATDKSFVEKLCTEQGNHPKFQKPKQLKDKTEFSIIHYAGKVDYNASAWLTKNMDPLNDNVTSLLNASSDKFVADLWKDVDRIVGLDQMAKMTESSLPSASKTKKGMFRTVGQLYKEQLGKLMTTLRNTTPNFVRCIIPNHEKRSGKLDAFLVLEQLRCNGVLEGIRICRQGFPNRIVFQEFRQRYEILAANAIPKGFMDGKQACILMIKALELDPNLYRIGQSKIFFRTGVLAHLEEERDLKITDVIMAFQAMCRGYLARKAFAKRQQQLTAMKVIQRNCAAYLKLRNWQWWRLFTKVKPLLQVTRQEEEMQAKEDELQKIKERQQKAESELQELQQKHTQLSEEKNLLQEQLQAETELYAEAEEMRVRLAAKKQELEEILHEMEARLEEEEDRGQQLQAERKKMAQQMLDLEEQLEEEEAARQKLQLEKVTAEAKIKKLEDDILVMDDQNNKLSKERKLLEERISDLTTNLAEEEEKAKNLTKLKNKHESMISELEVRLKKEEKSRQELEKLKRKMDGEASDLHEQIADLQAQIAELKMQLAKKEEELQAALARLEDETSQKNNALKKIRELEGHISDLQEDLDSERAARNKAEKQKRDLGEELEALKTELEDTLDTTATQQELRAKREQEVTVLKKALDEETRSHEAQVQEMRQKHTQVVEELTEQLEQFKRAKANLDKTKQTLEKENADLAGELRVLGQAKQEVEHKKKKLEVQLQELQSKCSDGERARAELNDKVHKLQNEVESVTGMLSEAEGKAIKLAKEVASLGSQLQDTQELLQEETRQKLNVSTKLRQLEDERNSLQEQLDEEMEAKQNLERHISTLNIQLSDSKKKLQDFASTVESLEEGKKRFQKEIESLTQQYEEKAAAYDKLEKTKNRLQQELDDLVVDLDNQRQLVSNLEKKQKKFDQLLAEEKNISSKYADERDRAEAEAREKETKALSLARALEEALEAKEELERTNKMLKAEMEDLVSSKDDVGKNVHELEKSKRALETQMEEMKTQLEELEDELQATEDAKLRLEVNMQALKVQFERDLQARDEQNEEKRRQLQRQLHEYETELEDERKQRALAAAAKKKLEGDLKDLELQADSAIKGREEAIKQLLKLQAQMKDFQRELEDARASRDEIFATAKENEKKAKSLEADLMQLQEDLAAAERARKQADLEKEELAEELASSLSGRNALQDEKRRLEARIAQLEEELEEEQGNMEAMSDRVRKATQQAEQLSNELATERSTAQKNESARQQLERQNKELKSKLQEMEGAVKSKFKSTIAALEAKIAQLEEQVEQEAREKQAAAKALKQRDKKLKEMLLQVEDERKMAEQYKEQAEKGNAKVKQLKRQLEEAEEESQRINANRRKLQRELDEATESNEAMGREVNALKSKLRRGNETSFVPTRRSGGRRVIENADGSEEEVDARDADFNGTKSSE

| Variant | effect of a mutation on the interaction (acts_rabit ACTA1, P68135) | effect of a mutation on the interaction [1] |
| --- | --- | --- |
| E248K | increasing interaction strength | increasing interaction strength |
| Y247H | increasing interaction strength | increasing interaction strength |
